{"source": "patent US20140162952A1", "about": "(ONCOTHERAPY SCIENCE, published 2014)", "binders": {"B1": {"name": "ERAP1 alanine mutant of D169 (D169A) (other)", "chain": "MEEILRKLQKEASGSKYKAIKESCTWALETLGGLDTIVKIPPHVLREKCLLPLQLALESKNVKLAQHALAGMQKLLSEERFVSMETDSDEKQLLNQILNAVKVTPSLNEDLQVEVMKVLLCITYTPTFDLNGSAVLKIAEVCIETYISSCHQRSINTAVRATLSQMLSALTLQLRQRQENTIIENPDVPQDFGNQGSTVESLCDDVVSVLTVLCEKLQAAINDSQQLQLLYLECILSVLSSSSSSMHLHRRFTDLIWKNLCPALIVILGNPIHDKTITSAHTSSTSTSLESDSASPGVSDHGRGSGCSCTAPALSGPVARTIYYIAAELVRLVGSVDSMKPVLQSLYHRVLLYPPPQHRVEAIKIMKEILGSPQRLCDLAGPSSTESESRKRSISKRKSHLDLLKLIMDGMTEACIKGGIEACYAAVSCVCTLL", "notes": "also called D169 mutant construct; not shown: Flag tag"}, "B2": {"name": "ERAP1 alanine mutant of Q165 and D169 (Q165A, D169A) (other)", "chain": "B1 chain with Q165A", "notes": "not shown: Flag tag"}, "B3": {"name": "ERAP1 alanine mutant of Q165 (Q165A) (other)", "chain": "B1 chain with Q165A, A169D", "notes": "also called Q165 mutant construct; not shown: Flag tag"}, "B4": {"name": "ERAP1-peptide (11R-bound dominant negative peptide, ERAP1 165-177) (peptide)", "peptide": "RRRRRRRRRRRQMLSDLTLQLRQR"}, "B5": {"name": "estrogen receptor α (ERα) (receptor)", "chain": "MTMTLHTKASGMALLHQIQGNELEPLNRPQLKIPLERPLGEVYLDSSKPAVYNYPEGAAYEFNAAAAANAQVYGQTGLPYGPGSEAAAFGSNGLGGFPPLNSVSPSPLMLLHPPPQLSPFLQPHGQQVPYYLENEPSGYTVREAGPPAFYRPNSDNRRQGGRERLASTNDKGSMAMESAKETRYCAVCNDYASGYHYGVWSCEGCKAFFKRSIQGHNDYMCPATNQCTIDKNRRKSCQACRLRKCYEVGMMKGGIRKDRRGGRMLKHKRQRDDGEGRGEVGSAGDMRAANLWPSPLMIKRSKKNSLALSLTADQMVSALLDAEPPILYSEYDPTRPFSEASMMGLLTNLADRELVHMINWAKRVPGFVDLTLHDQVHLLECAWLEILMIGLVWRSMEHPGKLLFAPNLLLDRNQGKCVEGMVEIFDMLLATSSRFRMMNLQGEEFVCLKSIILLNSGVYTFLSSTLKSLEEKDHIHRVLDKITDTLIHLMAKAGLTLQQQHQRLAQLLLILSHIRHMSNKGMEHLYSMKCKNVVPLYDLLLEMLDAHRLHAPTSRGGASVEETDQSHLATAGSTSSHSLQKYYITGEAEGFPATV", "notes": "Immunoprecipitated with anti-ERα antibody from cytoplasm or nuclear fractions"}, "B6": {"name": "Flag-ERAP1 1-250 (other, not shown: small tags and cut ends)", "chain": "MEEILRKLQKEASGSKYKAIKESCTWALETLGGLDTIVKIPPHVLREKCLLPLQLALESKNVKLAQHALAGMQKLLSEERFVSMETDSDEKQLLNQILNAVKVTPSLNEDLQVEVMKVLLCITYTPTFDLNGSAVLKIAEVCIETYISSCHQRSINTAVRATLSQMLSDLTLQLRQRQENTIIENPDVPQDFGNQGSTVESLCDDVVSVLTVLCEKLQAAINDSQQLQLLYLECILSVLSSSSSSMHLHR", "notes": "deletion construct"}, "B7": {"name": "ERAP1 435-2177 (Flag-ERAP1) (other, not shown: small tags and cut ends)", "chain": "GALDELSQGKGLSEGQVQLLLLRLEELKDGAEWSRDSMEINEADFRWQRRVLSSEHTPWESGNERSLDISISVTTDTGQTTLEGELGQTTPEDHSGNHKNSLKSPAIPEGKETLSKVLETEAVDQPDVVQRSHTVPYPDITNFLSVDCRTRSYGSRYSESNFSVDDQDLSRTEFDSCDQYSMAAEKDSGRSDVSDIGSDNCSLADEEQTPRDCLGHRSLRTAALSLKLLKNQEADQHSARLFIQSLEGLLPRLLSLSNVEEVDTALQNFASTFCSGMMHSPGFDGNSSLSFQMLMNADSLYTAAHCALLLNLKLSHGDYYRKRPTLAPGVMKDFMKQVQTSGVLMVFSQAWIEELYHQVLDRNMLGEAGYWGSPEDNSLPLITMLTDIDGLESSAIGGQLMASAATESPFAQSRRIDDSTVAGVAFARYILVGCWKNLIDTLSTPLTGRMAGSSKGLAFILGAEGIKEQNQKERDAICMSLDGLRKAARLSCALGVAANCASALAQMAAASCVQEEKEEREAQEPSDAITQVKLKVEQKLEQIGKVQGVWLHTAHVLCMEAILSVGLEMGSHNPDCWPHVFRVCEYVGTLEHNHFSDGASQPPLTISQPQKATGSAGLLGDPECEGSPPEHSPEQGRSLSTAPVVQPLSIQDLVREGSRGRASDFRGGSLMSGSSAAKVVLTLSTQADRLFEDATDKLNLMALGGFLYQLKKASQSQLFHSVTDTVDYSLAMPGEVKSTQDRKSALHLFRLGNAMLRIVRSKARPLLHVMRCWSLVAPHLVEAACHKERHVSQKAVSFIHDILTEVLTDWNEPPHFHFNEALFRPFERIMQLELCDEDVQDQVVTSIGELVEVCSTQIQSGWRPLFSALETVHGGNKSEMKEYLVGDYSMGKGQAPVFDVFEAFLNTDNIQVFANAATSYIMCLMKFVKGLGEVDCKEIGDCAPAPGAPSTDLCLPALDYLRRCSQLLAKIYKMPLKPIFLSGRLAGLPRRLQEQSASSEDGIESVLSDFDDDTGLIEVWIILLEQLTAAVSNCPRQHQPPTLDLLFELLRDVTKTPGPGFGIYAVVHLLLPVMSVWLRRSHKDHSYWDMASANFKHAIGLSCELVVEHIQSFLHSDIRYESMINTMLKDLFELLVACVAKPTETISRVGCSCIRYVLVTAGPVFTEEMWRLACCALQDAFSATLKPVKDLLGCFHSGTESFSGEGCQVRVAAPSSSPSAEAEYWRIRAMAQQVFMLDTQCSPKTPNNFDHAQSCQLIIELPPDEKPNGHTKKSVSFREIVVSLLSHQVLLQNLYDILLEEFVKGPSPGEEKTIQVPEAKLAGFLRYISMQNLAVIFDLLLDSYRTAREFDTSPGLKCLLKKVSGIGGAANLYRQSAMSFNIYFHALVCAVLTNQETITAEQVKKVLFEDDERSTDSSQQCSSEDEDIFEETAQVSPPRGKEKRQWRARMPLLSVQPVSNADWVWLVKRLHKLCMELCNNYIQMHLDLENCMEEPPIFKGDPFFILPSFQSESSTPSTGGFSGKETPSEDDRSQSREHMGESLSLKAGGGDLLLPPSPKVEKKDPSRKKEWWENAGNKIYTMAADKTISKLMTEYKKRKQQHNLSAFPKEVKVEKKGEPLGPRGQDSPLLQRPQHLMDQGQMRHSFSAGPELLRQDKRPRSGSTGSSLSVSVRDAEAQIQAWTNMVLTVLNQIQILPDQTFTALQPAVFPCISQLTCHVTDIRVRQAVREWLGRVGRVYDIIV"}, "B8": {"name": "ERAP1 1468-2177 (Flag-ERAP1) (other, not shown: small tags and cut ends)", "chain": "CPRQHQPPTLDLLFELLRDVTKTPGPGFGIYAVVHLLLPVMSVWLRRSHKDHSYWDMASANFKHAIGLSCELVVEHIQSFLHSDIRYESMINTMLKDLFELLVACVAKPTETISRVGCSCIRYVLVTAGPVFTEEMWRLACCALQDAFSATLKPVKDLLGCFHSGTESFSGEGCQVRVAAPSSSPSAEAEYWRIRAMAQQVFMLDTQCSPKTPNNFDHAQSCQLIIELPPDEKPNGHTKKSVSFREIVVSLLSHQVLLQNLYDILLEEFVKGPSPGEEKTIQVPEAKLAGFLRYISMQNLAVIFDLLLDSYRTAREFDTSPGLKCLLKKVSGIGGAANLYRQSAMSFNIYFHALVCAVLTNQETITAEQVKKVLFEDDERSTDSSQQCSSEDEDIFEETAQVSPPRGKEKRQWRARMPLLSVQPVSNADWVWLVKRLHKLCMELCNNYIQMHLDLENCMEEPPIFKGDPFFILPSFQSESSTPSTGGFSGKETPSEDDRSQSREHMGESLSLKAGGGDLLLPPSPKVEKKDPSRKKEWWENAGNKIYTMAADKTISKLMTEYKKRKQQHNLSAFPKEVKVEKKGEPLGPRGQDSPLLQRPQHLMDQGQMRHSFSAGPELLRQDKRPRSGSTGSSLSVSVRDAEAQIQAWTNMVLTVLNQIQILPDQTFTALQPAVFPCISQLTCHVTDIRVRQAVREWLGRVGRVYDIIV", "notes": "deletion construct"}, "B9": {"name": "Flag-ERAP1 1-100 (other, not shown: small tags and cut ends)", "chain": "MEEILRKLQKEASGSKYKAIKESCTWALETLGGLDTIVKIPPHVLREKCLLPLQLALESKNVKLAQHALAGMQKLLSEERFVSMETDSDEKQLLNQILNA", "notes": "deletion construct"}}, "key": {"[1]": {"target": "T1, HA-PHB2 (HA-tagged PHB2 construct) (human, UniProt Q99623 1-299, limits assumed)", "T1 construct": "Expressed by transfection in COS-7 or HEK293T cells; also called PHB2/REA construct; HA-tagged PHB2/REA (WT); not shown: HA tag", "T1 sequence (Q99623 whole entry)": "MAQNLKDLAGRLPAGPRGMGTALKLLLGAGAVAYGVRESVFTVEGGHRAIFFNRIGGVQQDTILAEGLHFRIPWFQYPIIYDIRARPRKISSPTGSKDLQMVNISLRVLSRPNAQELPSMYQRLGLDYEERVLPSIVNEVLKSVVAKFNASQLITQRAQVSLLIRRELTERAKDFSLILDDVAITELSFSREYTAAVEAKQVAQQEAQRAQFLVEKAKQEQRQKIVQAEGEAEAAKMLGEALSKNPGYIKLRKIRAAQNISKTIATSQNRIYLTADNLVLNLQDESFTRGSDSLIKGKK", "test": "COS-7 co-transfection with the PHB2/REA construct, IP with anti-HA antibody, immunoblot"}, "[2]": {"target": "T1, HA-PHB2 (HA-tagged PHB2 construct)", "test": "COS-7 co-transfection with the PHB2/REA construct, IP with anti-FLAG antibody, immunoblot"}, "[3]": {"target": "T1, HA-PHB2 (HA-tagged PHB2 construct)", "test": "co-immunoprecipitation from COS-7 cells, IP anti-FLAG, blot anti-HA (second experiment)"}, "[4]": {"target": "T1, HA-PHB2 (HA-tagged PHB2 construct)", "test": "COS-7 co-transfection with the PHB2/REA construct, IP and immunoblot"}, "[5]": {"target": "inherent PHB2/REA (prohibitin 2 / Repressor of Estrogen Activity) (human, UniProt Q99623 2-299, limits assumed)", "sequence (Q99623 2-299 limits assumed)": "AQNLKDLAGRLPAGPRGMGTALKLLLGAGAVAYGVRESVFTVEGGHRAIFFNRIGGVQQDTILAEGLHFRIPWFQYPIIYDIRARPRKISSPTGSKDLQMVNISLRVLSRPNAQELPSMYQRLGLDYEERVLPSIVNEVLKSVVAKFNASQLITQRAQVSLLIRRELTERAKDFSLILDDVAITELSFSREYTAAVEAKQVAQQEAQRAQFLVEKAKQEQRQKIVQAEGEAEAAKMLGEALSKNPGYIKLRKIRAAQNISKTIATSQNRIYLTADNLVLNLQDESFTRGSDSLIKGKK", "test": "cell-based or functional assay"}, "NcoR": {"target": "T2, NcoR (human, UniProt O75376 1-2440, limits assumed)", "T2 construct": "also called transcription coupling suppression factor NcoR", "T2 sequence (O75376 whole entry)": "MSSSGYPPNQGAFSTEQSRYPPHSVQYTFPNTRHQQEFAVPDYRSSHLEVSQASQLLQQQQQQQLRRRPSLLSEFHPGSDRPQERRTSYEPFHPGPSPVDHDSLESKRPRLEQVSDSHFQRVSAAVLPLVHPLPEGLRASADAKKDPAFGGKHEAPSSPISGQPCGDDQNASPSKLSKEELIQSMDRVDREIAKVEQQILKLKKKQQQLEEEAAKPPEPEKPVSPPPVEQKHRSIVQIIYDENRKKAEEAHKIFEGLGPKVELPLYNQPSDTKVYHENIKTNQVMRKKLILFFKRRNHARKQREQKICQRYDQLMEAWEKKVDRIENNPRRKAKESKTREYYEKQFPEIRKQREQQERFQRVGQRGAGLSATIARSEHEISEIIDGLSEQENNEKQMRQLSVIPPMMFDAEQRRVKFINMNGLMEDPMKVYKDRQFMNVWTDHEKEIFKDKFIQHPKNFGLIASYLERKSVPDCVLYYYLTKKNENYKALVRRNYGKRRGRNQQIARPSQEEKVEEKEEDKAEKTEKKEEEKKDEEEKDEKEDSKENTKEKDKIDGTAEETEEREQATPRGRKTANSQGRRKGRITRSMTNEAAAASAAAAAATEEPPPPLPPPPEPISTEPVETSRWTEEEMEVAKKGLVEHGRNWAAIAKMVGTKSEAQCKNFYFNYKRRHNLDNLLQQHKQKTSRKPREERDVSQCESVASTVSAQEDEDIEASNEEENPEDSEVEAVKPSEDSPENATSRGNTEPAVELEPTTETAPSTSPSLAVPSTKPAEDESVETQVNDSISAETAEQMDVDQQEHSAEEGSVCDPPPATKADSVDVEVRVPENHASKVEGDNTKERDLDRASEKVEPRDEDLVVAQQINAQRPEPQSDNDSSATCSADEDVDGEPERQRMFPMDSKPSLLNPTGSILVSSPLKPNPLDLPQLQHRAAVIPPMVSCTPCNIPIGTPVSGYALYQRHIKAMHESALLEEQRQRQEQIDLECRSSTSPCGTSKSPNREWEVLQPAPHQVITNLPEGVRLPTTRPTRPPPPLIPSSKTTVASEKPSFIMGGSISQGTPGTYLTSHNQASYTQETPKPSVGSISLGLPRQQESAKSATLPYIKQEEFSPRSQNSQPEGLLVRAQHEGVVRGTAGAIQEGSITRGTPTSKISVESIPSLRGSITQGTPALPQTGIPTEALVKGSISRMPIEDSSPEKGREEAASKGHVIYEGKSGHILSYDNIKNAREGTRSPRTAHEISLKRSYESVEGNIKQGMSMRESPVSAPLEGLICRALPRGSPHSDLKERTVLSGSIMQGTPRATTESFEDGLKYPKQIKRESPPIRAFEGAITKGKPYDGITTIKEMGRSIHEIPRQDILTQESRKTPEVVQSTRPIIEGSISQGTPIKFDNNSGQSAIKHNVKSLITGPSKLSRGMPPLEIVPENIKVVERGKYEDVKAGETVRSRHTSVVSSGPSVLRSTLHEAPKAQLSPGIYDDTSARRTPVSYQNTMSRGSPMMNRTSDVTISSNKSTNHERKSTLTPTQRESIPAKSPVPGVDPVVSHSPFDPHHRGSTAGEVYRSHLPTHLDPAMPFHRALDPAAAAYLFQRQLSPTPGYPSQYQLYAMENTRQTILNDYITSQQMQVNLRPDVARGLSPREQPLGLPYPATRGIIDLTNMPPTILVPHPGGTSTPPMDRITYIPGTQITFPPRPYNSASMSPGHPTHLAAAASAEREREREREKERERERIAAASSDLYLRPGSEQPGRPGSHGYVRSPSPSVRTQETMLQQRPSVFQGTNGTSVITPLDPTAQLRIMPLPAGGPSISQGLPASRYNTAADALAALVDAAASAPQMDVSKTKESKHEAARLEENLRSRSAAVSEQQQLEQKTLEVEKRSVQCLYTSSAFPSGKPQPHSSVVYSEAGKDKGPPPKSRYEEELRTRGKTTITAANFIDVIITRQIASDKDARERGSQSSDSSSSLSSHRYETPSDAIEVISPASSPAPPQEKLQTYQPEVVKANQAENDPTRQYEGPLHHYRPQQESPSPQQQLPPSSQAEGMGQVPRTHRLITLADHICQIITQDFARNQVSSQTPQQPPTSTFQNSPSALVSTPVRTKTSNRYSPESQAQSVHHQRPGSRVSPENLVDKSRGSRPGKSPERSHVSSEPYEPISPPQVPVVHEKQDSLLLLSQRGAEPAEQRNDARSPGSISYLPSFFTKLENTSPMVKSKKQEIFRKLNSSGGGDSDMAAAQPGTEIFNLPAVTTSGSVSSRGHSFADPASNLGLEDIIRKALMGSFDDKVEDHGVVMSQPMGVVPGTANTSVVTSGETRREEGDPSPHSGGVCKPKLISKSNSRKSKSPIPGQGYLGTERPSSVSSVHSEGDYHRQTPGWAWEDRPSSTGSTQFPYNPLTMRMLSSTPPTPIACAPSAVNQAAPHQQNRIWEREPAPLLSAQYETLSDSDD", "test": "co-IP from the nuclear fraction of KPL-3C cells, 24 h, 10 nM E2 and/or 10 µM Peptide"}, "Her2": {"target": "Her2 (human, UniProt P04626 23-1255)", "test": "anti-ERα co-IP from the cytoplasm fraction of BT-474 cells, 24 h, 10 nM E2 and/or 10 µM Peptide"}, "EGFR": {"target": "EGFR (human, UniProt P00533 25-1210)", "test": "anti-ERα co-IP from the cytoplasm fraction of BT-474 cells, 24 h, 10 nM E2 and/or 10 µM Peptide"}, "[6]": {"target": "T1, HA-PHB2 (HA-tagged PHB2 construct)", "test": "co-IP from COS-7 cells co-transfected with a Flag-ERAP1 construct and HA-PHB2; IP anti-Flag, IB anti-HA"}, "[7]": {"target": "T1, HA-PHB2 (HA-tagged PHB2 construct)", "test": "co-IP from COS-7 cells co-transfected with a Flag-ERAP1 construct and HA-PHB2; IP anti-Flag, IB anti-HA", "remark": "listed apart in the source"}}, "note": "Positions count from the first letter of the chain named. Names may count otherwise. Where two headings read alike, the source gives them in different places.", "data": [{"binder": "B1", "values": [{"measurement": "coprecipitation band, ratio when that with ERAP1 (1-434 aa) is designated as 100", "setting": "[1]", "result": 0, "unit": "%"}, {"measurement": "coprecipitation band, ratio when that with ERAP1 (1-434 aa) is designated as 100", "setting": "[2]", "result": 22, "unit": "%"}, {"measurement": "ratio of the coprecipitated band (ERAP1 1-434 = 100)", "setting": "[3]", "result": 33}]}, {"binder": "B2", "values": [{"measurement": "coprecipitation band, ratio when that with ERAP1 (1-434 aa) is designated as 100", "setting": "[4]", "result": 12, "unit": "%"}]}, {"binder": "B3", "values": [{"measurement": "coprecipitation band, ratio when that with ERAP1 (1-434 aa) is designated as 100", "setting": "[1]", "result": 24, "unit": "%"}, {"measurement": "coprecipitation band, ratio when that with ERAP1 (1-434 aa) is designated as 100", "setting": "[2]", "result": 60, "unit": "%"}, {"measurement": "ratio of the coprecipitated band (ERAP1 1-434 = 100)", "setting": "[3]", "result": 63}]}, {"binder": "B4", "values": [{"measurement": "IC50 of suppression effect for the cell proliferation in MCF-7 cells for 24 hours", "setting": "[5]", "result": 2.18, "unit": "µM"}]}, {"binder": "B5", "values": [{"measurement": "binding result", "setting": "NcoR", "result": "binds"}, {"measurement": "binding result", "setting": "Her2", "result": "binds"}, {"measurement": "binding result", "setting": "EGFR", "result": "binds"}]}, {"binder": "B6", "values": [{"measurement": "binding result", "setting": "[6]", "result": "binds"}]}, {"binder": "B7", "values": [{"measurement": "binding result", "setting": "[7]", "result": "no binding"}]}, {"binder": "B8", "values": [{"measurement": "binding result", "setting": "[7]", "result": "no binding"}]}, {"binder": "B9", "values": [{"measurement": "binding result", "setting": "[6]", "result": "no binding"}]}]}
